Assay results taken from article PMC7170481, “Inhibition of Ammonia Monooxygenase from Ammonia-Oxidizing Archaea by Linear and Aromatic Alkynes” (Applied and Environmental Microbiology, 2020).

Substrate: N
Assay: cells, lysate or membranes
Conditions: intact cells, total NH3 + NH4+, 0.1% DMSO, no inhibitor, whole-cell nitrite read-out
[1] = 10 mM HEPES pH 7, 37°C, pH 7.0, 37.0 °C
[2] = 50 mM sodium phosphate pH 7.7, 2 mM MgCl2, 30°C, pH 7.7, 30.0 °C

Protein	Km [1]	Vmax [1]	Km [2]	Vmax [2]
AMO from "Ca. Nitrosocosmicus franklandus" C13 (Candidatus Nitrosocosmicus franklandianus) (protein) chain 1: MVWLRRTTHYLFIVVVAVNSTLLTINAGDYIFYTDWAWTSFVVFSISQSTMLVVGAIYYMLFTGVPGTATYYATIMTIYTWVAKGAWFALGYPYDFVVVPVWIPSAMLLDLAYWATRRNKHAAILIGGVLVGMSLPLFNMINLLLVADPLEMAFKYPRPTLPPYMTPIEPQVGKFYNSPVALGAGAGAVLCVPIAALGAKLNTWTYRWMAAWSKWD chain 2: MNEKSGNKPAMVFLIVTFVAGASILASIIALLPLADGHGVQAQLQSRFVRINNEAFSAQSLNTGDTLVVTGELQSLVNRPMRGWISLFSESTNAGNRWEFVSRDPPGNIIEIQPQETVPYRLEAKALEPGVYHVHTQLNLASVGPGLGPGQTIQVVGDPILKPIPWNNIIYQSIIIAAGLGVTFATRPWQVI chain 3: MAQMPALIPKEVEIQRLKKIYLMVIMLGSIAASVEVDNFVDGSLHQTAIRDSAFTPAHWWLYSHFIALPLGWGFVAMYDRRVPVLRGPNNSMNTGLKITIIGYLATMFTIGINEMWHFWFVEEIFSVPNHWMFNMGVVVAFMGALAYVVRVYARLVELGAETPARNPYVAEMYKLALEGKLYSRSIP	26.7 (4.7) μM	0.0641 µmol/min/mg	–	–
AMO from Nitrosomonas europaea (Nitrosomonas europaea ATCC 19718) (protein) chain 1: SIFRTEEILKAAKMPPEAVHMSRLIDAVYFPILIILLVGTYHMHFMLLAGDWDFWMDWKDRQWWPVVTPIVGITYCSAIMYYLWVNYRQPFGATLCVVCLLIGEWLTRYWGFYWWSHYPINFVTPGIMLPGALMLDFTLYLTRNWLVTALVGGGFFGLLFYPGNWPIFGPTHLPIVVEGTLLSMADYMGHLYVRTGTPEYVRHIEQGSLRTFGGHTTVIAAFFSAFVSMLMFTVWWYLGKVYCTAFFYVKGKRGRIVHRNDVTAFGEEGFPEGIK chain 2: MTVTLDVSTVAAHGERSQEPFLRMRTVQWYDIKWGPEVTKVNENAKITGKFHLAEDWPRAAAQPDFSFFNVGSPSPVFVRLSTKINGHPWFISGPLQIGRDYEFEVNLRARIPGRHHMHAMLNVKDAGPIAGPGAWMNITGSWDDFTNPLKLLTGETIDSETFNLSNGIFWHVVWMSIGIFWIGVFTARPMFLPRSRVLLAYGDDLLMDPMDKKITWVLAILTLALVWGGYRYTENKHPYTVPIQAGQSKVAALPVAPNPVSIVITDANYDVPGRALRVTMEVTNNGDIPVTFGEFTTAGIRFINSTGRKYLDPQYPRELIAVGLNFDDESAIQPGQTKELKMEAKDALWEIQRLMALLGDPESRFGGLLMSWDAEGNRHINSIAGPVIPVFTKL chain 3: MATTLGTSSASSVSSRGYDMSLWYDSKFYKFGMITMLLVAIFWVWYQRYFAYSHGMDSMEPEFDRVWMGLWRVHMAIMPLFALVTWGWILKTRDTKEQLDNLDPKLEIKRYFYYMMWLGVYIFGVYWGGSFFTEQDASWHQVIIRDTSFTPSHVVMFYGSFPMYIVCGVATYLYAMTRLPLFSRGISFPLVMAIAGPLMILPNVGLNEWGHAFWFMEELFSAPLHWGFVVLGWAGLFQGGVAAQIITRYSNLTDVVWNNQSKEILNNRIVA	–	–	520.3 (19.6) μM	0.324 µmol/min/mg
